In patent publication US20210113587A1 (ADC THERAPEUTICS, published 2021):

B1: ADCT-301 (antibody, V domains shown)
VH: QVQLVQSGAEVKKPGSSVKVSCKASGGTFSRYIINWVRQAPGQGLEWMGRIIPILGVENYAQKFQGRVTITADKSTSTAYMELSSLRSEDTAVYYCARKDWFDYWGQGTLVTVSS
VL: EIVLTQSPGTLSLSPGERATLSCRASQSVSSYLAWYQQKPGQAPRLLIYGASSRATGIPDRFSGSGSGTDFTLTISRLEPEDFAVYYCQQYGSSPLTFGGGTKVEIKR
modifications: pyrrolobenzodiazepine (PBD) warhead attached by a cleavable linker, drug-antibody ratio 2.3±0.3; attachment residues not stated
notes: also called HuMax-TAC-E of WO2014/57119
B2: HuMax®-TAC (antibody, V domains shown)
VH: B1 VH
VL: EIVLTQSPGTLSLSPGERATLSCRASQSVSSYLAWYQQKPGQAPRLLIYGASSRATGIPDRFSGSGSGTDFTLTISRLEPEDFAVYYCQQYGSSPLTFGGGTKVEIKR
notes: also called AB12; naked antibody

Experiments:
[1] = target: T1, human recombinant soluble CD25 ectodomain (human, UniProt P01589 22-240); assay: SPR (Biacore CM3 chip), sCD25 ectodomain immobilised; run 3
T1 construct: extracellular domain; Immobilised on a Biacore CM3 chip; also called sCD25 ectodomain; human sCD25 ectodomain
T1 sequence (looked up): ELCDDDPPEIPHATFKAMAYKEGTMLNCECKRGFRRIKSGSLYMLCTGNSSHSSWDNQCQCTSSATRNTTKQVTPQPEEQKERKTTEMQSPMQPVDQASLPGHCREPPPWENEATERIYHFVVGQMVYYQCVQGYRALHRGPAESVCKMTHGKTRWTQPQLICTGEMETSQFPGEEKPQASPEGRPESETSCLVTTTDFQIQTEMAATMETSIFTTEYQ
Description: (§1) The equilibrium dissociation constant, KD, was calculated for both molecules using BIAevaluation ® software.

[2] = target: T1, human recombinant soluble CD25 …; assay: SPR (Biacore CM3 chip), sCD25 ectodomain immobilised; run 4
Description: as §1

[3] = target: T1, human recombinant soluble CD25 …; assay: SPR (Biacore CM3 chip), sCD25 ectodomain immobilised; mean of runs
Description: as §1

[4] = target: T1, human recombinant soluble CD25 …; assay: SPR (Biacore CM3 chip), sCD25 ectodomain immobilised; run 1
Description: as §1

[5] = target: T1, human recombinant soluble CD25 …; assay: SPR (Biacore CM3 chip), sCD25 ectodomain immobilised; run 5
Description: as §1

[6] = target: T1, human recombinant soluble CD25 …; assay: SPR (Biacore CM3 chip), sCD25 ectodomain immobilised; run 2
Description: as §1

[7] = target: T2, human CD25 on concanavalin-A activated CD25-positive human PBMCs and CD25-expressing lymphoma cell lines (human, UniProt P01589 22-272); assay: flow cytometry, MFI on concanavalin-A activated CD25-positive human PBMCs (CD25-PE gate)
T2 construct: whole, on cells; also called IL2R-α; Interleukin-2 receptor-α
T2 sequence (looked up): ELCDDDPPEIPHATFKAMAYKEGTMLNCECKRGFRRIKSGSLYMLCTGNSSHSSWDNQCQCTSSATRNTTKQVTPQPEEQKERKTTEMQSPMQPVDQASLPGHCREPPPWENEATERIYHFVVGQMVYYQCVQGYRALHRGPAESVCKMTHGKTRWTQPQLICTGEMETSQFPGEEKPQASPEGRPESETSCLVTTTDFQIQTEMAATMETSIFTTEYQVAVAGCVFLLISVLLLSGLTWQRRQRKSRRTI
Description: FIG. 1. […] Isotype, non-targeting-ADC-FITC was used as the non-binding ADC control. The EC₅₀ was ≈0.03 μg/ml (180 pM).

[8] = target: T1, human recombinant soluble CD25 …; assay: SPR (Biacore CM3 chip), sCD25 ectodomain immobilised; run 6
Description: as §1

| Binder | Kd [1] | Kd [2] | Kd [3] | Kd [4] | Kd [5] | Kd [6] | EC50 [7] | Kd [8] |
| --- | --- | --- | --- | --- | --- | --- | --- | --- |
| B1 | 0.0207 nM | 0.0179 nM | 0.0209 nM | 0.0205 nM | 0.0212 nM | 0.0205 nM | ~0.18 nM | 0.0244 nM |
| B2 | 0.0191 nM | 0.0148 nM | 0.0158 nM | 0.0146 nM | 0.0144 nM | 0.016 nM |  |  |
